According to patent US11142588B2, “Polypeptides which bind C-X-C chemokine receptor type 4 (CXCR4) and methods of treating or reducing the risk of fibrosis and cancer” (AdAlta Limited, priority 2015, dated 2021):
“Also recorded” adds a separate entry of the source.

B1: AM3-523: affinity matured CXCR4 i-body, SEQ ID NO: 56 (protein)
chain: LQVDIVPSQGEISVGESKFFLCQVAGSGSHMRISWFSPNGEKLTPNQQRISVVWNDDSSSTLTIYNANIDDAGIYKCVVWVGGYRHRALVLGEATVNVKIFQ
modifications: protein sequence encoding AM3-523

What was measured:
Ramos tumor cells [1] = test: MTT cell proliferation assay; format: cell-based, human; details: 24 to 72 hrs, AM3-114 at 10 μM
Procedure: The ability of the CXCR4 molecules or polypeptides disclosed herein (i-bodies) to inhibit proliferation of Ramos tumor cells, a human Burkitt's lymphoma cell line expressing CXCR4 mentioned above, in vitro was examined in a MTT cell proliferation assay as described in (Lapteva (2005) Cancer Gene Therapy 12, 84-89). Cells were grown in a 96-well tissue culture plate and treated with a vehicle or the anti-CXCR4 body. The cells were then incubated with the MTT solution for approximately 4 hours. After this incubation period, a water-insoluble formazan dye is formed. After solubilization, the formazan dye is quantitated using a scanning multi-well spectrophotometer (ELISA reader).

Ramos tumor cells [2] = test: Apoptosis assay (annexin V / propidium iodide flow cytometry); format: cell-based, human; details: annexin V and propidium iodide double positive, 24 or 72 hours
[3] = system: white blood cells, LSK and LSKSLAM cells in peripheral blood; test: Stem cell mobilisation in mice after i.v. injection; format: in vivo, mouse; details: 1 and 3 hours after i.v. injection, compared to AMD3100
Procedure: After 1 and 3 hours, mice were euthanized and peripheral blood (PB) harvested. Spleens were harvested and weighed to assess for splenomegaly (enlargement of the spleen). Samples were lysed to remove red blood cells and 4000 cells plated for LPP (low-proliferative potential) and CFU-HPP (colony forming unit-high proliferative potential) colonies (colony counting 7 days post-plating). The remaining cells were stained with an antibody cocktail to assess lineage-committed, stem and progenitor cell content. Flow cytometric analysis was used to calculate numbers of lineage-committed cells, haemopoietic stem and progenitor cells as well as enriched HSC per volume of PB.

[4] = system: human CD34+ stem and progenitor cells; test: Mobilisation of human CD34+ cells in humanised NSG mice; format: in vivo, humanized NODSIL2Rγ (NSG) mice; details: humanised NSG mouse model, compared to AMD3100
Procedure: To acquire evidence of mobilisation of human CD34^+ stem and progenitor cells using CXCR4 i-bodies, the above mobilisation experiment was conducted in humanized NODSIL2Rγ (NSG) mice. NSG mice are severely immunodeficient and lack mature T cells, B-cells and NK cells and have severely defective innate immunity, which allows engraftment of human cells without subsequent rejection. NSG mice were transplanted with freshly sorted CD34^+ cord blood cells and upon confirmation of positive human CD45/CD34 engraftment (˜4-5 weeks) were used as a mouse model for human stem cell mobilisation.
Mobilised peripheral blood was harvested and assessed for CD34^+ (human stem and progenitors).

[5] = Murine air pouch model with SDF-1; format: in vivo, BALB/c mice; details: intraperitoneal, 30 minutes before SDF-1 6 μg
Procedure: The ability of i-bodies to block inflammation was evaluated in an in vivo murine air pouch model. The subcutaneous (s.c.) air pouch is an in vivo model used to study acute and chronic inflammation (Durate et al, Models of Inflammation: Carrageenan Air Pouch, Current Protocols in Pharmacology 5.6.1-5.6.8, March 2012). Injection of irritants into an air pouch in rats or mice induces an inflammatory response that can be quantified by the volume of exudate produced, the infiltration of cells, and the release of inflammatory mediators. An air pouch, is generated by injection of sterile air under the skin of the back of the mouse. […] Air pouch lavage fluid is then analyzed for cell trafficking and cytokine release.
The air pouch assay was performed on 7-week-old BALB/c mice. On days 1 and 3, 0.2 ml/g initial body weight (IBW) of sterile air was injected under the back skin to create the pouch. […] Thirty minutes later, SDF-1 (6 μg) was injected into the pouch. Four hours later, the mice were killed in a CO2 chamber and the air pouch was washed. Cells were collected, counted, and characterized by flow cytometry.

[6] = Bleomycin mouse model of pulmonary fibrosis; format: in vivo
Method in brief: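 Mice received bleomycin 2 U/mouse, with i-body dosed just before; at day 4, BAL SDF-1, lung fibrocytes (CD45+ CXCR4+ Collagen1+ by flow cytometry of collagenase/dispase suspensions), Sircol collagen staining and Col-1, Col-3, SDF-1 RNA were assessed. A separate 21-day bleomycin study tested PEGylated i-body.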

[7] = system: Human platelet rich plasma; test: SDF-1α induced platelet aggregation; format: cell-based; details: 10 or 20 ug/mL, 100 nM SDF-1 alpha
Procedure: Experiments were carried out to examine whether the i-bodies could block platelet aggregation induced by SDF-1α. […] In the presence of negative control i-body 21H5 (or the isotype control for 12G5: mouse IgG2a). SDF-1 induced a robust and reproducible aggregation (the descending black curves, which indicate an increase in light transmission), which matches with what has been previously published.

Row | Molecule | growth of RAMOS cells (Ramos tumor cells [1]) | induction of apoptosis in Ramos cells (Ramos tumor cells [2]) | mobilisation of white blood cells [3] | mobilisation of human CD34+ stem cells [4] | cell migration / leukocyte infiltration into the air pouch [5] | collagen content of the lung (Sircol) ([6]; 30 mg/kg) | recruitment of fibrocytes into the lungs ([6]; 30 mg/kg, day 4, CD45+ CXCR4+ Col 1+ cells) | blocking of SDF-1α induced platelet aggregation [7] | recruitment of fibrocytes into the lungs ([6]; 1 mg/Kg, day 4) | recruitment of fibrocytes into the lungs ([6]; day 4, dose not given)
1 | AM3-114: affinity matured CXCR4 i-body, SEQ ID NO: 40 | substantially inhibit the growth | induced apoptosis | No mobilisation | do not mobilise stem cells | inhibiting leukocyte infiltration; also recorded: inhibited cell migration | reduced the collagen content | dramatically attenuate | most effective; also recorded: most efficient | – | –
2 | B1 | no observable effect | induced apoptosis | No mobilisation | do not mobilise stem cells | inhibiting leukocyte infiltration; also recorded: inhibited cell migration | reduced the collagen content | – | blocked aggregation to the same extent as the MAb12G5 | block recruitment of fibrocytes | significantly attenuate
